{"source": "paper PMC2592702", "about": "(PLoS ONE, 2008)", "binders": {"B1": {"name": "POM2 scFv, purified and refolded (scFv, V domains shown)", "VH": "EVKLQESGGEVVRPGTSVKVSCKASGYAFTNYLIEWVKQRPGQGLEWIGVINPGSGDTNYNEKFKGKATLTADKSSSTAYMQLNSLTSDDSAVYFCARSGVAAPYYYAMDYWGQGTSVTVSS", "VL": "DIVMTQSHKFMSTSVGDRVSITCKASQDVGTALAWYQQKPGQSPKLLIYWASTRHTGVPDRFTGSGSGTDFTLTISNVQSEDLSDYFCQQYSSYPTFGGGTKLEIK"}, "B2": {"name": "POM11 monoclonal antibody (antibody, V domains shown)", "VH": "DVMLVESGPELEKPGASVRISCKASGYSFTGYNMDWVKQNNGKSLEWIGSIDPYYGGTSYNQSFKDKATLTVDKSSGTAYMQLKSLTSDDSAVYYCARGGVGPYYYALDYWGQGTSVTVSS", "VL": "DIVLTQSHKFMSTSVGDRVSITCKASQDVGSAVAWYQQKPGQSPKLLIYWSSTRHTGVPDRFTGSGSGTDFTLTISNVQSEDLADYFCHQYNSSPTFGRGTKLELK"}, "B3": {"name": "POM19 monoclonal antibody (antibody, V domains shown)", "VH": "EVKLMESGAELMKPGGSVKISCKATGYTFYSYWIEWIKRRPGHGLEWIGEILPGTGDTKYSEKFKGRATFTADPSSNTAYMQLSSLTSEDSAVYYCTRLIYYRYDDYALDYWGQGTSVTVSS", "VL": "DIVMTQSPAVMSASPGEKVTMTCSASSSISYMHWYQQKPGTSPKRWIFDTSKLASGVPARFSGSGSGTSYSPTISSMEAEDAATYFCHQRIIYPTFGGGTKLEMK"}}, "key": {"[1]": {"molecular_target": "T1, POM2 epitope-mimicking peptide of the competition BIAcore experiment (Mus musculus)", "T1 chain": "QPHGGGW", "assay": "SPR; […] (100–[…]), 1 h at room temperature; […]; HBS-EP", "details": "both partners purified"}, "[2]": {"molecular_target": "T2, N-terminally truncated recombinant mouse PrP, residues 121–231 (rmPrP_(121-231)) (Mus musculus, UniProt P04925)", "T2 sequence (P04925 whole entry, looked up, the tested form may be a part)": "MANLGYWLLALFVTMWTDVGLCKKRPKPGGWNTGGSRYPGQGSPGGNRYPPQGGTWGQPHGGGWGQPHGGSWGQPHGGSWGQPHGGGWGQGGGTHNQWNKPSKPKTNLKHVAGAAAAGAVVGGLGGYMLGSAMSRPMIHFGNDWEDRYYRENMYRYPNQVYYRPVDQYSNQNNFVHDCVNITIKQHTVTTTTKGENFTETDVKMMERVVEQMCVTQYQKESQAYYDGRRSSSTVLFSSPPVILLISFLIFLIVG", "assay": "ELISA"}, "[3]": {"molecular_target": "T2, N-terminally truncated recombinant …", "assay": "SPR; […]; antibody 420 pM–110 nM in HBS-EP at 20 µl/min, 20 min dissociation, […]", "details": "both partners purified"}}, "data": [{"binder": "B1", "values": [{"measurement": "Kd", "setting": "[1]", "result": 20, "unit": "nM"}]}, {"binder": "B2", "values": [{"measurement": "binding result", "setting": "[2]", "result": "no binding"}]}, {"binder": "B3", "values": [{"measurement": "Kd", "setting": "[3]", "result": 0.87, "unit": "nM"}]}]}
